Columns and labels:
Type in all cases: biochemical
[1] = TLC analysis on hydrolyzed products of birch xylan by Xyl7
Method: 1% (w/w) Birch xylan was treated by 15 U Xyl7 at pH7.0 and 50[…] for 10 min, 1 h, 4 h, and 12 h, respectively, to obtain the hydrolyzed products. […], each 5 μl, were subjected to TLC for identification. The standard samples were xylose, xylobiose, and xylotriose. The developing agent comprised ethyl acetate, acetic acid and water in a ratio of 2:1:1(V/V/V). The chromogenic agent was a solution of 1 mL aniline, 1 g diphenylamine and 5 mL 85% phosphoric acid dissolved in 50 mL acetone.

[2] = Detection of the optimum pH
Method: (§1) In a 100 μl reaction system, birch xylan was added to a final concentration of 1% (w/w), and Na2HPO4/NaH2PO4 buffer (pH7.0) was added to a final concentration of 100 mM. A suitable amount of enzyme solution diluted by the abovementioned buffer was added to the reaction system for reaction at 50[…] for 10 minutes. 100 μl DNS were added to stop the reaction. For the control, 100 μl DNS were firstly added to the above reaction system before adding the enzyme solution. The reaction mixtures were subjected to a boiled water bath for 5 minutes to develop color. Absorbance value at 540 nm was detected by a microplate reader. After subtracting the absorbance value of the control from that of the sample, the enzymatic activity unit (U) was calculated based on the standard curve.
Buffers having different pH values in the range of 3.5-10 in a gradient of 0.5 unit were prepared, wherein NaAc with a final concentration of 100 mM was used to prepare the buffers having a pH in the range of 3.5-6.0, Na2HPO4/NaH2PO4 with a final concentration of 100 mM was used to prepare the buffers having a pH in the range of 6.0-8.0, and Tris-HCl with a final concentration of 100 mM was used to prepare the buffers having a pH in the range of 8.0-10.0. The enzyme solution was added into each pH buffer system and the enzymatic activity was tested according to the above standard enzymatic activity detection steps. […]

[3] = Detection on pH tolerance; details: pH 6.5, 7.0 or 7.5, 50° C., 45 min; % of the highest activity
Method: as §1
The enzyme solution was kept in buffers of different pH values (6.5, 7.0 and 7.5) or at pH 7.0 with addition of 70 mM mercaptoethanol at 50° C. for different times (15 min, 30 min, 45 min, 60 min, 75 min). Enzymatic activity was tested according to the above standard enzymatic activity detection steps (enzymatic activity was tested after reacting at pH7.0, 50° C. for 10 minutes). The specific activity value of Xyl7 obtained after storing at pH7.0, 50° C. for 0 minute and reacting at 50° C. for 10 minutes was used as a reference value, and its relative activity was defined as 100%. […]

[4] = Hydrolysis of Xyl7 on different substrates (DNS method); details: substrate 2% (w/w), pH7.0, 50, 10 minutes
Method: as §1
Various substrates with a final concentration of 2% (w/w) were treated by a suitable amount of enzymes at pH7.0 and 50[…] for 10 minutes. Enzymatic activity was tested according to the above standard enzymatic activity detection steps. […] No detectable enzymatic activity was found for the other test substrates. This was consistent to the high substrate specificity of xylanase of the GH11 Family.

B1: Xyl7: endo-1,4-β-xylanase of 505 amino acids, SEQ ID NO:2, from termite gut metagenome, expressed in E. coli with His tag (protein)
chain: MKKLIALSFIAAFFAPLFAQGPTWTTSTIQAYNGYDYELWNQNNAGTVSMKLTGDNGSGASAVGGTFTATWSNTQNVLFRSGKKWGSSSNQNHTQIGNMSINFAATWSSTDNVKMLGVYGWAYFTSANVPTKQENGTNASFSNQIEYYIIQDRGSYNPASGGTNAKKYGSATIDGIAYDFYVCDRINQPMLTGNGNFKQFFSVPQSASAHRTSGTISVSQHFNKWHELGMKMDGPLYEVAMKVESYTGSGSSNGSATVTKNLLTIGGTTPTPSSNSGGTTSSSSRASSSSRASSSSNAAVQATTCKTPLITYPTSTVPSDPYTACFKYTDDKCYVCKVENEGEFEGNMNTCGSGWVWDGTQIDNNLRDGYWYQEVPCPAGSSSSRSSSSSVAVSSSSRSSSSSVAASSSSRSSSSSASVSSSSEETPIRVLHTIPSKFRVRSLNNGALQIESNADVVLYLYDTKGKMAQKIEAPTGSSIVKLSVPAGIYIVRNVQTKEKLRVMVR
modifications: His tag; Intestinal tract metagenome of termite
In the case of B1, the “hydrolyzed product of xylan, action time relatively short” value ([1]; 10 minutes, pH7.0, 50) is reported as “oligoxylan”, the “hydrolyzed product of xylan, action time relatively long” value ([1]; 12 hours, pH7.0, 50) is reported as “xylo-oligosaccharide, mainly including xylobiose, xylotriose and xylotetraose” and the “final hydrolyzed product if the enzyme was excessive” value ([1]; excess enzyme) is reported as “xylose”. The “optimum pH” value ([2]; buffers pH 3.5-10, 50) was 7.0, the “relative activity in the pH range of from 5.5 to 10” value ([2]; relative to activity at pH7.0, 50) was at least 50% and the “retained activity after storing in buffer” value [3] was at least 50%. For the same molecule, the “Specific Activity on barley dextran” value [4] was 0 U/mg, the “Specific Activity on carboxymethyl cellulose sodium” value [4] was 0 U/mg and the “Specific Activity on laminarin” value [4] was 0 U/mg. The “Specific Activity on locust bean gum” value [4] was 0 U/mg and the “Specific Activity on microcrystalline cellulose powder” value [4] was 0 U/mg.

Source: patent US20160201045A1, “Endo-xylanase and Coding Gene and Use Thereof” (SHANGHAI INSTITUTES FOR BIOLOGICAL SCIENCES CHINESE ACADEMY …, priority 2013, published 2016)
